PMC9522604
Read-outs that look alike come from different tables or passages of the source.

T1: Cas12c2 (UniProt PDB:7V94_1 1-1232)
T1 sequence: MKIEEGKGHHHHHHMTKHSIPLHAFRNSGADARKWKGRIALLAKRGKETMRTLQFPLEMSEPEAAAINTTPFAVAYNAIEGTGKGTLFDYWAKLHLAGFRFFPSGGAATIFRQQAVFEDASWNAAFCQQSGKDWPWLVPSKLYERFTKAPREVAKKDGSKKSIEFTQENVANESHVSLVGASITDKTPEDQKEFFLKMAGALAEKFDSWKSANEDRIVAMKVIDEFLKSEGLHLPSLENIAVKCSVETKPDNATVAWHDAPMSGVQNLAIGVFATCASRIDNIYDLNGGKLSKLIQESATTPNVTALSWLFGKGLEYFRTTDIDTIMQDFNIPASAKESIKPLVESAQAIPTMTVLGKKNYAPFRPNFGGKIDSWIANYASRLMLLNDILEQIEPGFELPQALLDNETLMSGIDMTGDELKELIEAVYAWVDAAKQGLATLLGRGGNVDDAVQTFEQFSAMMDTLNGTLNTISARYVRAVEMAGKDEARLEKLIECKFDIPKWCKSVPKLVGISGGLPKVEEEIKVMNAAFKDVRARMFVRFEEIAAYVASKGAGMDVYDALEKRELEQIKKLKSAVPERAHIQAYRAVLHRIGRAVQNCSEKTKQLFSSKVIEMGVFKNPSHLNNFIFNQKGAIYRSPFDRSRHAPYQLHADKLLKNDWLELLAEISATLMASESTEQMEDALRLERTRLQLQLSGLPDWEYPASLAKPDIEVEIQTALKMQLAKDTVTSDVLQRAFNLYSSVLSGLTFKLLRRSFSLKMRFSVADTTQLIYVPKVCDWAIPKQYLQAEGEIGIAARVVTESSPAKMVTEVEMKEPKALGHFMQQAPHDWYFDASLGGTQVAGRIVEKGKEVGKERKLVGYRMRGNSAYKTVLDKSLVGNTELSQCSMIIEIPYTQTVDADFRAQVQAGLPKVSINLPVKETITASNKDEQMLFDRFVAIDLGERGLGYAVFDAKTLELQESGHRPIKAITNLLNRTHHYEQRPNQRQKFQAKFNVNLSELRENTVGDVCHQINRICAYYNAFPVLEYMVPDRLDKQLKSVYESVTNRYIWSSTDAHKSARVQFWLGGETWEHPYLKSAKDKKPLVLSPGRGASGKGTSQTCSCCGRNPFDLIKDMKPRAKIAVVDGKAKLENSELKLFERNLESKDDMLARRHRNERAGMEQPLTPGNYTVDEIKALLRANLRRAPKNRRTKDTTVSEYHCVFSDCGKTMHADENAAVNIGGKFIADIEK

B1: Cas12c2 sgRNA (112 nt) (structured_RNA)
RNA: GGAUACCACCCGUGCAUUUCUGGAUCAAUGAUCCGUACCUCAAUGUCCGGGCGCGCAGCUAGAGCGACCUGAAGAAAUUCAGGUUGGGUUUGAGGGGAAAUUAGGUGCGCUU
B2: sgRNA + 33-bp target DNA, TG PAM (guide/target strand/non-target strand) (mixed)
RNA: B1 RNA
DNA 1: AGGTTGCCAAGCGCACCTAATTTCCCATTTTAG
DNA 2: CTAAAATGGGAAATTAGGTGCGCTTGGCAACCT

Tests used:
[1] = biological target: T1, Cas12c2; test: cryo-EM
[2] = biological target: T1, Cas12c2; test: cryo-EM; remark: listed apart in the source

Binder	binding result [1]	binding result [2]
B1	binds	
B2		binds
